Assay results reported in the supplement of paper PMC9170038.

Tested on: MS2 coat protein
Assay: apparent KD of MS2 coat protein; designed switch direction (-1 OFF switch, 1 ON switch): -1; higher = weaker reporter binding
In short: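 An oligonucleotide input, 200 uM small-molecule ligand, or no input was present during titration of SNAP-549-labelled MS2 coat protein, which was doubled from 0.7 or 1.5 nM to 3 µM. Designed RNA switches had been transcribed on Illumina chips by stalled E. coli RNA polymerase. Apparent KD per design is the median over clusters of curves fitted to normalised cluster fluorescence.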

[1] = Eterna round: R95, input ligand: FMN 200 uM
[2] = Eterna round: R95, input ligand: microRNA oligo, concentration not stated
[3] = Eterna round: R95, input ligand: none
[4] = input ligand: microRNA oligo, concentration not stated

Sequence	apparent KD of MS2 coat protein [1]	apparent KD of MS2 coat protein [2]	apparent KD of MS2 coat protein [3]	apparent KD of MS2 coat protein (input ligand: FMN 200 uM)	apparent KD of MS2 coat protein (input ligand: none)	apparent KD of MS2 coat protein [4]
AAGAAACAUGAGGAUCACCCAUGUCAGGAUAUCUCGAAAAGCAUAGAAAUAUGCGAAGAGAGAAGGGACUAUCC [ChP Ext 10-04-2015 #3] (puzzle: Exclusion 1)	22.7 nM	23.7 nM	31.6 nM			
UACACGGGAGGAUAUACGUAGAUGCAGGUUCGUGUGGUGCUACAUGAGGAUCACCCAUGUAGAAGGCCCAACGU [Mod 4 R3 JL-ex2-2.29] (Eterna round: R97, puzzle: Exclusion 2)				26.3 nM	23.4 nM	
UGUGCGUAUGUGAGGAUAUGCUGGUCCUUGGAUCGGCAGAAGGCACAUGAGGAUCACCCAUGUGGUGUCGUACC [salish99_Bmod_ex4_075] (puzzle: Brourd's mod of Exclusion 4)		154 nM				
GAUUAUGCGAGCUUUAGGGACAUGAGGAUCACCCAUGUUCGUCUUAUUGAUCUGGAUGCACUAACAUACCUAAAUCU [JMF 27] (puzzle: Sensor v3, turn-off variant 1)	51.1 nM	64.6 nM	49.3 nM			
UUACAAUGUCACUUACAAGCUUUUUGCUCGUCUUAUAUUACAUGAGGAUCACCCAUGUAGAUCAUGUGGCGUGACCU [JL ViennaUCT Maridi mod 10] (puzzle: Sensor v3, turn-off variant 2)	145 nM	46.7 nM	151 nM			
AGUGUCAAGCAAGCAAGGAACAUGAGGAUCACCCAUGUCGUACAAUAAACGCCCGCUCGUCGCACGUCGUGCGUAGA [Eternabot (Original) Solution 18] (Eterna round: R97, puzzle: Sensor, turn-off variant 1)				34.3 nM	27.2 nM	
GGCCUGUAAGGAUAUUAGUAGUAGUCAGAAUAGACUAUUACUGAGAAGGUACAUGAGGAUCACCCAUGUUGGCC [Eli x4 4.06] (Eterna round: R97, puzzle: Exclusion 4)				17.7 nM	14 nM	
ACUUAUUGAGGAUAUACAUAAAUUUACAUGAGGAUCACCCAUGUUCUUCUAUGUAUAUAUGUAGAAGGCAGAAGAG [Mat - Exclusion 5 - JL Mod - D33] (Eterna round: R97, puzzle: Exclusion 5)				30.1 nM	17.2 nM	
UCGAGGUCAGGAUAUACAUGAGGAUCACCCAUGUGGAUGUAAGGUAGGAGAAGAGUAGGUAGAAGGGACGAGAG [JR_Exclu3_Sub049] (puzzle: Exclusion 3)	46.7 nM	37.8 nM	55.4 nM			
UACAUGAGGAUCACCCAUGUUUUGUCGUGUAUGGUAUUUAUCUAGGAUAUCAAUCUAAUUAUUUAUGAGAAGGAGAAUAUUAAU [JMF's solution 50] (Eterna round: R96, puzzle: Exclusion NG 3)				47.9 nM	42.4 nM	31.2 nM
GUAGAGUCAGGAUAUACGAGAUCGAAAGAUCGGCGAUCCAAACAUGAGGAUCACCCAUGUAGAAGGGACUCUAC [Eli x2 4.004] (Eterna round: R97, puzzle: Exclusion 2)				579 nM	41 nM	
AGCUGUGGCCGAGGAUAUACACAUGAGGAUCACCCAUGUAGGCGCGGAUACGCGCUAAAAUAAAUGUAGAAGGCGGUCUCAGCA [Eli eng2 - 055] (Eterna round: R96, puzzle: Exclusion NG 2)				7.06 nM	11.8 nM	5 nM
AUAUUAAUAUAGGAUAUCGAAAUUAUUAAUUAUCGAGAAGGAUAAACAUGAGGAUCACCCAUGUGGUAUCAUGG [Mat - Exclusion 6 - JL Mod - D41] (puzzle: Exclusion 6)	257 nM	257 nM	328 nM			
GCGUACUGAGGAUAUACAUGAGGAUCACCCAUGUGAAGAAGAAAGUAGUGAUGGUUGGGUAGAAGGCAGUAUGC [JR_Ex3_Sub064] (Eterna round: R97, puzzle: Exclusion 3)				103 nM	98.5 nM	
